We go through three molecules from patent US20140315185A1, “METHODS AND COMPOSITIONS FOR IMPROVING SPERM FUNCTIONALITY” (ANDROGENIX LTD., priority 2011, published 2014).

One data set concerns sperm. The settings on record: added in sufficient concentration and simultaneously with the H2O2; cited from earlier work.
Data set [1] relates to bovine sperm. Kind of data set: Catalase activity assay of conjugate-bound sperm. The data set is classed as cell-based. Particulars: in 2.5×10^6 sperm cells after binding and removal of unbound conjugate. The protocol: (§1) Recovery of the cholesterol-PEG5000-FITC-catalase was determined by Coomassie staining and catalase activity assay. For the catalase activity assay, 0.5 μl of test samples and serially diluted bovine catalase (Sigma) were placed in a microtitre plate, and incubated with 50 μl of 10 ng/ml of streptavidin-HRP (Biosource) and 50 μl of TMB substrate (Invitrogen) for 5 min. The plate was read at 450 nm on an EnVision plate reader (PerkinElmer) after stopping the reaction with 50 μl of 2 M sulfuric acid. Catalase activity of the test sample was calculated from the standard curve generated with known concentrations of bovine catalase.
1.5 ml of bovine sperm in liquid extender was carefully placed on top of 4 ml of 60%_Percoll™ PLUS (GE Healthcare) column, and centrifugated for 20 min at 700×g at 20° C. […] The binding of cholesterol-PEG5000-FITC-catalase to sperm was analysed by flow cytometry and catalase activity assay. […] The catalase activity of cholesterol-PEG5000-FITC-catalase bound sperm was measured as described in Example 1. 79 units of catalase activity were measured in 2.5×10^6 sperm cells after binding with cholesterol-PEG5000-FITC-catalase, whereas no catalase activity was detected in control sperm without addition of cholesterol-PEG5000-FITC-catalase.

The subject of another data set is Jurkat cells. Nature of the data set: Catalase activity assay of treated Jurkat cells. The data set is classed as cell-based, human. Particulars: units per 2.5×10^6 cells; incubated at 37° C. for 30 min, then centrifuged and resuspended. The protocol:
as §1
Jurkat cells (ATCC, TIB-152; human T lymphocyte cell line) were cultured in RPMI-1640 media with 10% fetal calf serum. For analysis, cells were removed from culture, centrifuged at 700×g for 5 min, the culture media was removed and cells were resuspended at a concentration of 5×10^7 cells/ml in PBS. […] The Jurkat cells were analyzed by both flow cytometry and catalase activity assay.
The catalase activity of the treated Jurkat cells was measured as described in Example 1. 50 μl of 5×10^7 cells/ml of each test sample was analysed in the assay and the catalase activity contained in each of the Jurkat samples was calculated from the standard curve. […]

Data set [2] has as its system bovine sperm. Nature of the data set: Binding of cholesterol-PEG-catalase to sperm, flow cytometry. It counts as cell-based. The settings on record: sperm incubated with 3 mg/ml conjugate at 37° C. for 30 min, unbound removed on Percoll PLUS. On the procedure: 1.5 ml of bovine sperm in liquid extender was carefully placed on top of 4 ml of 60%_Percoll™ PLUS (GE Healthcare) column, and centrifugated for 20 min at 700×g at 20° C. The resulting purified sperm pellet was resuspended in non-capacitating media (NCM; see Table 2) containing 0.1 mg/ml of BSA to a cell concentration of 5×10^7 ml. 200 μl of the purified sperm was mixed with an equal volume of 3 mg/ml cholesterol-PEG5000-FITC-catalase, and incubated light protected at 37° C. for 30 min. The unbound cholesterol-PEG5000-FITC-catalase was removed by layering 400 μl of sperm/cholesterol-PEG5000-FITC-catalase mixture on the top of 500 μl of 60% Percoll™ PLUS column, followed by centrifugation for 20 min at 700×g at 20° C. The sperm pellet was resuspended in NCM containing 0.1 mg/ml of BSA to a total volume of 400 μl. The binding of cholesterol-PEG5000-FITC-catalase to sperm was analysed by flow cytometry and catalase activity assay. […] The catalase activity of cholesterol-PEG5000-FITC-catalase bound sperm was measured as described in Example 1. 79 units of catalase activity were measured in 2.5×10^6 sperm cells after binding with cholesterol-PEG5000-FITC-catalase, whereas no catalase activity was detected in control sperm without addition of cholesterol-PEG5000-FITC-catalase.
Background: A flow cytometer gives signals particle by particle.

With `N[C@@H](CCC(=O)N[C@@H](CS)C(=O)NCC(=O)O)C(=O)O` [glutathione, reference compound], the “rescue of H2O2-induced loss of motility” value in the data set with sperm is given as “able to rescue the loss of motility”.

B1: cholesterol-PEG5000-FITC-catalase: Bovine catalase covalently labelled with cholesterol-PEG5000-NHS-FITC; 4.0 to 5.4 cholesterol-PEG per catalase monomer (conjugate, UniProt P00432 2-527, looked up)
Catalase: ADNRDPASDQMKHWKEQRAAQKPDVLTTGGGNPVGDKLNSLTVGPRGPLLVQDVVFTDEMAHFDRERIPERVVHAKGAGAFGYFEVTHDITRYSKAKVFEHIGKRTPIAVRFSTVAGESGSADTVRDPRGFAVKFYTEDGNWDLVGNNTPIFFIRDALLFPSFIHSQKRNPQTHLKDPDMVWDFWSLRPESLHQVSFLFSDRGIPDGHRHMNGYGSHTFKLVNANGEAVYCKFHYKTDQGIKNLSVEDAARLAHEDPDYGLRDLFNAIATGNYPSWTLYIQVMTFSEAEIFPFNPFDLTKVWPHGDYPLIPVGKLVLNRNPVNYFAEVEQLAFDPSNMPPGIEPSPDKMLQGRLFAYPDTHRHRLGPNYLQIPVNCPYRARVANYQRDGPMCMMDNQGGAPNYYPNSFSAPEHQPSALEHRTHFSGDVQRFNSANDDNVTQVRTFYLKVLNEEQRKRLCENIAGHLKDAQLFIQKKAVKNFSDVHPEYGSRIQALLDKYNEEKPKNAVHTYVQHGSHLSAREKANL
modifications: cholesterol-PEG5000-FITC label
notes: Bovine catalase covalently labelled with cholesterol-PEG5000-NHS-FITC; 4.0 to 5.4 cholesterol-PEG per catalase monomer
B1: in the data set with bovine sperm [1], the “catalase activity of bound sperm” value came out at 79 units. Also, in the data set on Jurkat cells, the “catalase activity in Jurkat cells” value is reported as 66 U. In addition, the “binding to live sperm (Hoechst 33258 negative)” value in the data set on bovine sperm [2] is recorded as “approx. 10 fold over background”.

B2: catalase: Bovine catalase (Sigma), used alone without the cholesterol-PEG5000-FITC linker; antioxidant enzyme (protein, listed as Bos taurus)
chain: MADNRDPASDQMKHWKEQRAAQKPDVLTTGGGNPVGDKLNSLTVGPRGPLLVQDVVFTDEMAHFDRERIPERVVHAKGAGAFGYFEVTHDITRYSKAKVFEHIGKRTPIAVRFSTVAGESGSADTVRDPRGFAVKFYTEDGNWDLVGNNTPIFFIRDALLFPSFIHSQKRNPQTHLKDPDMVWDFWSLRPESLHQVSFLFSDRGIPDGHRHMNGYGSHTFKLVNANGEAVYCKFHYKTDQGIKNLSVEDAARLAHEDPDYGLRDLFNAIATGNYPSWTLYIQVMTFSEAEIFPFNPFDLTKVWPHGDYPLIPVGKLVLNRNPVNYFAEVEQLAFDPSNMPPGIEPSPDKMLQGRLFAYPDTHRHRLGPNYLQIPVNCPYRARVANYQRDGPMCMMDNQGGAPNYYPNSFSAPEHQPSALEHRTHFSGDVQRFNSANDDNVTQVRTFYLKVLNEEQRKRLCENIAGHLKDAQLFIQKKAVKNFSDVHPEYGSRIQALLDKYNEEKPKNAVHTYVQHGSHLSAREKANL
For the molecule B2, the “rescue of H2O2-induced loss of motility” value with sperm is “able to rescue the loss of motility”. Besides, the “catalase activity in Jurkat cells” value in the data set on Jurkat cells turned out to be 44 U.
